PMC3566092

Legend:
[1] = target: Recombinant His-tagged WIP1ΔEx6 (UniProt O15297)
[2] = target: Recombinant His-tagged WIP1ΔEx6 (UniProt O15297); remark: listed apart in the source

GST-Tax, sequence (P03409 whole entry): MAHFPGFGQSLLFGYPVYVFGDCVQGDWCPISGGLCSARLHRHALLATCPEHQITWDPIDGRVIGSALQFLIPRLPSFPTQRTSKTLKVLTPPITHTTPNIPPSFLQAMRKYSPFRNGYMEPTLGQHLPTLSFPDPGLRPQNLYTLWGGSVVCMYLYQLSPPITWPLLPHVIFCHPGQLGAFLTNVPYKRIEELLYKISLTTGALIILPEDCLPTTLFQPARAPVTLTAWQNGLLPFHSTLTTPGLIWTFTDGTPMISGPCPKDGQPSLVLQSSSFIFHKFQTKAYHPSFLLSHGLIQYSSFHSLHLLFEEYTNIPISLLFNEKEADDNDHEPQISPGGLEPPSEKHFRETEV

Question: Which in vitro phosphatase assay: free phosphate released from the p38 (pT180) phosphopeptide by His-WIP1 with GST-Tax, against His-WIP1 alone [1] does the source give for “GST-Tax (from UniProt P03409 1-353) (natural protein)” here?
Answer: 2 fold

Question: And the in vitro phosphatase assay: free phosphate released from the H2AX (pS139) phosphopeptide by His-WIP1 (20 ng) with GST-Tax (100 ng), against His-WIP1 alone or with GST [2]?
Answer: 2 fold
